Results on 1 substance are retold here after US20120039878A1.

In this assay the target is murine monoclonal antibody 2A4 (ATCC Accession Number PTA-9662). Description: Competition ELISA; mouse AA (AEF) in solution competing with adsorbed human AA amyloid extract for mAb 2A4.
Chain of murine monoclonal antibody 2A4 (ATCC Accession Number PTA-9662) (VL, as listed by the source, chain 1 of 2): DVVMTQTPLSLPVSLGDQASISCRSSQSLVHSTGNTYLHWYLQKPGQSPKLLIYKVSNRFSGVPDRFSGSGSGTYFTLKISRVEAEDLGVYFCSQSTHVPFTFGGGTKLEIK
Chain of murine monoclonal antibody 2A4 (ATCC Accession Number PTA-9662) (VH, as listed by the source, chain 2 of 2): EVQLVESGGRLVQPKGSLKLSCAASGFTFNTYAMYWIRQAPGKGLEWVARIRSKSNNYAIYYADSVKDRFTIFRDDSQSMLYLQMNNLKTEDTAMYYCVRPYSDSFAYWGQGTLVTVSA

Chain of murine AA amyloid (AA fibrils; amyloid enhancing factor extract, AEF) (P05367 20-94): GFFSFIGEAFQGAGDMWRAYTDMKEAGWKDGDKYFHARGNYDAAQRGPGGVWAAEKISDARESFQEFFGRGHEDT

“murine AA amyloid (AA fibrils; amyloid enhancing factor extract, AEF)” came in with a 50% inhibitory concentration (IC50) of 14.7 µg/mL.
